Assays:
[1] = biological target: alpha-synuclein oligomers (UniProt P37840); test: ELISA on antigen-coated plate, antibody titrated in tenfold steps, OD 450-630 nm
alpha-synuclein fibrils = alpha-synuclein fibrils (UniProt P37840); test: as above
alpha-synuclein monomers = alpha-synuclein monomers (UniProt P37840); test: as above
[2] = biological target: alpha-synuclein oligomers (UniProt P37840); test: ELISA, alpha-Syn oligomer coated plate, exp 2
[3] = biological target: alpha-synuclein oligomers (UniProt P37840); test: ELISA, alpha-Syn oligomer coated plate, exp 1
[4] = biological target: alpha-synuclein oligomers (UniProt P37840); test: ELISA, ratio of EC50 values, reference alpha-Syn fibrils (FIG. 3)
[5] = biological target: alpha-synuclein oligomers (UniProt P37840); test: ELISA, alpha-Syn oligomer coated plate, exp 3
[6] = biological target: alpha-synuclein oligomers (UniProt P37840); test: ELISA (Example 3), reference antibody 26F1

EC50 (read off the curve) [1] | EC50 (read off the curve) (alpha-synuclein fibrils) | EC50 (read off the curve) (alpha-synuclein monomers) | EC50 [2] | EC50 [3] | binding affinity ratio alpha-Syn oligomers:alpha-Syn fibrils [4] | EC50 [5] | fold weaker binding affinity to alpha-Syn oligomers than 26F1 [6] | Substance
0.02 nM | 0.02 nM | 0.02 nM | 0.06 nM | 0.06 nM | 1 | 0.14 nM | – | MJFR14 antibody
– | – | – | 0.6 nM | 0.2 nM | – | 0.6 nM | > 2 fold | 5G4 antibody

— patent publication US20230151089A1
